Among the data in article PMC10759260 (Journal of Pharmaceutical Analysis, 2023) are Kd values, retold here.

In one assay the target is HSP90α mutant Y61A (Homo sapiens, UniProt P07900, Y61A). Kind of assay: biochemical.
In assay [1] the target is HSP90α (90 kD heat shock protein alpha) (Homo sapiens, UniProt P07900). Kind of assay: biochemical.
Assay [2] has as its target CDC37 recombinant protein (UniProt Q16543). The assay can be described thus: ITC. In general terms: Isothermal titration calorimetry measures the heat released or taken up as one component is titrated into another.
Assay [3] shares this target. Kind of assay: ITC. This is another data set of the same source.

Read-outs that look alike come from different tables or passages of the source.

CDC37 recombinant protein, sequence (Q16543 whole entry): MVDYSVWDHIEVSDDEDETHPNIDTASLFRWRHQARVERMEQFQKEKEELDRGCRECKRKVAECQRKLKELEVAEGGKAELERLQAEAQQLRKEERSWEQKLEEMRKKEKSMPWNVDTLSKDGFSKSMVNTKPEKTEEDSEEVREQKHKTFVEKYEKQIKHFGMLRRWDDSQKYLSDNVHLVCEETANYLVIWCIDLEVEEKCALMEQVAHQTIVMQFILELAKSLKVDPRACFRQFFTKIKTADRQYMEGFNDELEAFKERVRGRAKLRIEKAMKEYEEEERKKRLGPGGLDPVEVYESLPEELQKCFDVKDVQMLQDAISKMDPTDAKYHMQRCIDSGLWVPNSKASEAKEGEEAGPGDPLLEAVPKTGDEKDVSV

As for `CC(C)=CC/C=C(\C)[C@H]1CC[C@]2(C)[C@@H]1[C@H](O)C[C@@H]1[C@@]3(C)CC[C@H](O[C@@H]4O[C@H](CO)[C@@H](O)[C@H](O)[C@H]4O[C@@H]4O[C@H](CO)[C@@H](O)[C@H](O)[C@H]4O)C(C)(C)[C@@H]3CC[C@]12C` [Rg5, ginsenoside Rg5], the Kd came to 232 ± 34 µM on HSP90α mutant Y61A and 24.8 ± 1.76 µM in assay [1].

With “HSP90α WT recombinant protein from E. coli (from UniProt P07900 1-732) (natural protein)”, the values for the dissociation constant (Kd) in assay [2] and in assay [3] were 34.4 µM and 2.68 µM, respectively.

Regarding “HSP90α Y61A recombinant protein from E. coli (from UniProt P07900 1-732) (natural protein)”, the Kd in assay [2] came out at 8.23 µM; in assay [3], 7.59 µM.

The term Kd denotes the concentration at which binding is half-saturated.
